Our source for the Fluorescence Index (FI) values is patent publication US20030148973A1, “MAGE-A1 peptides for treating or preventing cancer” (priority 2001, published 2003).

The assay has as its target HLA-A0201 molecules on the surface of T2 cells. The experiment in a line: T2 cell HLA-A0201 stabilization; 20 µg peptide on 10^6 acid-stripped T2 cells, BB7.2 staining, flow cytometry. The note with it: remark: other sources report otherwise.

The molecule CLGLSYDGL [MAGE-A1 174] registered a Fluorescence Index (FI) of 1.73 FI.
